In the supplement of paper PMC10567573:

B1: CSNK1G1 (parent)
chain: GSLPWQGLKADTLKERYQKIGDTK
B2: TPPP (parent)
chain: LCKDCQVIDGRNVTVTDVDIVFSK

Variants of: B1
Assay: protein stability index of a GFP-peptide fusion (GPS, HEK-293T) (PSI 1-6); higher = more stable
Details: c terminus: a fixed tail appended
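Further: lentivirally expressed fusions sorted by FACS into six bins by GFP to DsRed ratio, PSI derived from sequencing read proportions per bin multiplied by bin number.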

In order of rising protein stability index:
1. K24Y  2.63
2. D22W  2.64
3. K14W  2.74
4. E15W  2.77
5. T23W  2.78
6. K19W  2.83
7. Q18F  2.91
8. K24W  2.95
9. D22Y  2.98
10. R16W  2.99
11. D22M  3
12. D22F  3
13. K24F  3
14. G21W  3.01
15. K19F  3.05
16. L13W  3.05
17. D22A  3.06
18. K14G  3.08
19. E15Y  3.1
20. K14L  3.1
21. K14F  3.13
22. K24M  3.19
23. D22N  3.2
24. K24D  3.25
25. E15I  3.26
26. R16I  3.26
27. T12W  3.27
28. E15K  3.29
29. G21C  3.29
30. K24L  3.3
31. E15V  3.31
32. D22L  3.32
33. Q18W  3.34
34. K14M  3.36
35. T23Y  3.36
36. E15C  3.37
37. K14Y  3.37
38. T23F  3.38
39. K24V  3.39
40. E15N  3.39
41. K24C  3.4
42. T23C  3.4
43. D22I  3.41
44. G21I  3.41
45. G21F  3.42
46. D22R  3.43
47. E15H  3.43
48. L13M  3.46
49. E15S  3.47
50. E15M  3.51
51. T12Y  3.51
52. D22T  3.52
53. K14Q  3.52
54. K24I  3.53
55. K19I  3.54
56. D22K  3.56
57. E15F  3.56
58. K19C  3.56
59. Q18I  3.57
60. G21A  3.59
61. K24H  3.6
62. Q18K  3.62
63. I20W  3.62
64. Q18M  3.64
65. Q18V  3.64
66. G21V  3.64
67. D22V  3.65
68. E15L  3.66
69. K19M  3.68
70. D22P  3.7
71. L13V  3.7
72. L13C  3.71
73. K24R  3.72
74. L13Y  3.72
75. D22G  3.74
76. Q18Y  3.74
77. E15A  3.74
78. K19L  3.74
79. G21Y  3.74
80. D22H  3.75
81. K14I  3.75
82. K19R  3.75
83. Q18C  3.76
84. K24G  3.79
85. K24S  3.79
86. K14R  3.8
87. D22C  3.81
88. K14C  3.81
89. T23I  3.81
90. D22Q  3.82
91. T23L  3.82
92. Y17W  3.82
93. K19V  3.83
94. G21T  3.83
95. T23R  3.84
96. I20L  3.86
97. K19Y  3.86
98. G21N  3.86
99. G21M  3.87
100. K14S  3.88
101. D22E  3.91
102. Q18L  3.91
103. K24N  3.91
104. T23P  3.91
105. T23N  3.92
106. E15T  3.93
107. K19A  3.94
108. K19S  3.95
109. K19P  3.95
110. Q18R  3.96
111. T23Q  3.96
112. L13A  3.96
113. E15P  3.97
114. T23M  3.97
115. E15R  3.98
116. R16F  3.98
117. G21L  4
118. K24A  4.01
119. T23V  4.01
120. R16Y  4.01
121. K14D  4.02
122. Y17V  4.04
123. D22S  4.05
124. L13P  4.06
125. K24Q  4.07
126. E15G  4.07
127. T12N  4.07
128. R16T  4.07
129. K24T  4.08
130. T23H  4.08
131. Q18G  4.09
132. Q18H  4.09
133. E15Q  4.09
134. K14T  4.09
135. Q18N  4.11
136. R16L  4.11
137. R16M  4.11
138. L13G  4.12
139. Y17R  4.13
140. K14V  4.14
141. G21H  4.15
142. L13K  4.15
143. G21R  4.16
144. K19G  4.17
145. T12Q  4.19
146. Y17F  4.19
147. Y17L  4.19
148. I20R  4.2
149. K24P  4.2
150. T12V  4.2
151. L13F  4.2
152. Y17I  4.21
153. K14E  4.23
154. R16K  4.23
155. Y17M  4.23
156. K19H  4.24
157. E15D  4.25
158. R16V  4.25
159. Q18T  4.26
160. I20F  4.26
161. Y17C  4.27
162. L13R  4.27
163. I20Y  4.29
164. R16A  4.29
165. R16C  4.29
166. I20V  4.3
167. K19T  4.3
168. G21S  4.3
169. I20K  4.33
170. T12R  4.33
171. T23G  4.34
172. Q18S  4.35
173. I20C  4.35
174. K19N  4.35
175. R16H  4.35
176. I20Q  4.36
177. K14H  4.37
178. R16P  4.37
179. G21E  4.37
180. K14P  4.41
181. R16Q  4.44
182. G21Q  4.44
183. K19E  4.45
184. Y17S  4.45
185. Q18A  4.46
186. I20T  4.46
187. T23A  4.46
188. Q18D  4.47
189. I20H  4.47
190. L13Q  4.47
191. L13I  4.48
192. L13D  4.49
193. I20M  4.53
194. T23S  4.53
195. Q18E  4.54
196. R16D  4.54
197. K14A  4.55
198. T23D  4.55
199. G21D  4.57
200. T12S  4.58
201. K14N  4.58
202. I20N  4.62
203. G21P  4.62
204. L13S  4.62
205. L13H  4.64
206. I20S  4.65
207. L13T  4.65
208. Q18P  4.66
209. L13E  4.66
210. I20A  4.67
211. K19D  4.67
212. T23E  4.68
213. R16N  4.68
214. R16E  4.69
215. R16S  4.71
216. G21K  4.71
217. Y17K  4.72
218. T23K  4.74
219. I20P  4.75
220. K19Q  4.8
221. Y17Q  4.81
222. L13N  4.81
223. Y17T  4.83
224. I20D  4.86
225. T12P  4.86
226. K24E  4.88
227. Y17P  4.88
228. R16G  4.89
229. Y17A  4.98
230. Y17N  4.98
231. Y17D  4.99
232. I20G  5
233. Y17H  5.05
234. I20E  5.24
235. Y17G  5.36
236. Y17E  5.71

Variants of: B2
Assay: as above
Details: c terminus: a fixed tail appended

In order of rising protein stability index:
1. K3I  1.05
2. K3W  1.49
3. D4H  1.57
4. L1R  1.57
5. K3F  1.65
6. D4N  1.69
7. D4S  1.71
8. Q6F  1.74
9. D4A  1.76
10. D4T  1.77
11. K3M  1.78
12. D4Y  1.81
13. D4V  1.82
14. D4L  1.83
15. L1C  1.85
16. K3C  1.89
17. L1W  1.89
18. K3Y  1.91
19. K3L  1.92
20. D4F  1.93
21. D4Q  1.97
22. L1I  2.01
23. D4I  2.02
24. Q6A  2.05
25. L1Y  2.08
26. Q6C  2.09
27. D4M  2.1
28. K3R  2.15
29. K3S  2.17
30. K3Q  2.18
31. D4P  2.25
32. L1F  2.25
33. L1M  2.26
34. C5W  2.28
35. D4K  2.31
36. D4C  2.35
37. D4G  2.42
38. C2F  2.48
39. K3A  2.51
40. K3H  2.52
41. L1A  2.54
42. C5F  2.54
43. C2W  2.56
44. C5I  2.6
45. Q6D  2.69
46. L1H  2.7
47. D4E  2.71
48. L1V  2.71
49. D4R  2.73
50. L1T  2.73
51. C2Y  2.75
52. C5M  2.77
53. Q6G  2.78
54. C2R  2.79
55. K3T  2.83
56. L1P  2.85
57. Q6E  2.9
58. L1S  2.91
59. C2I  2.93
60. C5Y  2.94
61. K3N  2.95
62. C5G  2.98
63. C2V  3.04
64. C2K  3.07
65. L1Q  3.08
66. C2L  3.09
67. C5L  3.16
68. K3E  3.21
69. C2M  3.24
70. K3P  3.26
71. K3D  3.3
72. L1N  3.32
73. K3G  3.34
74. C5T  3.35
75. C5V  3.36
76. C2G  3.37
77. C5R  3.38
78. L1E  3.41
79. C2H  3.42
80. L1K  3.47
81. C2S  3.54
82. C2A  3.56
83. C2N  3.59
84. C2T  3.61
85. C5A  3.62
86. C5N  3.66
87. C5Q  3.75
88. C5H  3.82
89. C5K  3.84
90. C5S  4.01
91. C5P  4.03
92. C2P  4.04
93. L1D  4.05
94. C2D  4.08
95. C2Q  4.18
96. C5E  4.32
97. C2E  4.36
98. C5D  4.39
